Laboratory results reported in article PMC9482650, “Quantitative fragmentomics allow affinity mapping of interactomes” (Nature Communications, 2022).
One block for each binder: values may come before it.

How the values were obtained:
Assay in all cases: holdup assay
Set-up in all cases: key: below the threshold = too weak to quantify, mostly under pKd 3.1 to 4
[1] = target: HTRA2, O43464
[2] = target: T1, PTPN13_1, Q12923
T1 sequence (Q12923 1088-1188, limits assumed, looked up): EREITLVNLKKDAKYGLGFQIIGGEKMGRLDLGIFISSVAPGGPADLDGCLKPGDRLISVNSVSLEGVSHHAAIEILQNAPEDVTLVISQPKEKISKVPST

[3] = target: T2, MPP7, Q5T2T1
T2 sequence (Q5T2T1 134-230, limits assumed, looked up): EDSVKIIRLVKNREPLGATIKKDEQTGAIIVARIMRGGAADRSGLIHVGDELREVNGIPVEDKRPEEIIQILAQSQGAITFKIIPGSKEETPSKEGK

[4] = target: T3, CARD11, Q9BXL7
T3 sequence (Q9BXL7 662-765, limits assumed, looked up): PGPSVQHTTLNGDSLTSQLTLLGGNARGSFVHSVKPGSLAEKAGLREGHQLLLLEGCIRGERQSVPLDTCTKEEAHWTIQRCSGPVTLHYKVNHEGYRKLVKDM

[5] = target: T4, GRIP1_2, Q9Y3R0
T4 sequence (Q9Y3R0 145-248, limits assumed, looked up): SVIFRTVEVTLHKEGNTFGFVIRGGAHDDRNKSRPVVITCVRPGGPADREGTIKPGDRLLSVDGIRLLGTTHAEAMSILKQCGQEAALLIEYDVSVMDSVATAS

[6] = target: T5, PDZD7_3, Q9H5P4
T5 sequence (Q9H5P4 857-944, limits assumed, looked up): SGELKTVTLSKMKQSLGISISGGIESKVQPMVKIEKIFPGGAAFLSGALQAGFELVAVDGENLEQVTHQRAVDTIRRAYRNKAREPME

[7] = target: T6, APBA3_1, O96018
T6 sequence (O96018 389-490, limits assumed, looked up): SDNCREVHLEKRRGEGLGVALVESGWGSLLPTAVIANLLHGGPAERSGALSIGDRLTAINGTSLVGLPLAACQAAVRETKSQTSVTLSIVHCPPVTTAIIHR

[8] = target: Inadl_5, Q8NI35
[9] = target: LNX1_2, Q8TBB1
[10] = target: T7, LNX2_2, Q8N448
T7 sequence (Q8N448 334-432, limits assumed, looked up): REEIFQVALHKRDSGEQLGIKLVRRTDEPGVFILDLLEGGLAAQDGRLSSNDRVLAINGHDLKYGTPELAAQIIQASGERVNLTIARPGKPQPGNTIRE

[11] = target: T8, APBA1_2, Q02410
T8 sequence (Q02410 742-832, limits assumed, looked up): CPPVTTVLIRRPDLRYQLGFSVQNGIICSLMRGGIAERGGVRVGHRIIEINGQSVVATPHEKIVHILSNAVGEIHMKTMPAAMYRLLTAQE

[12] = target: GRASP, Q7Z6J2
[13] = target: T9, GRIP1_4, Q9Y3R0
T9 sequence (Q9Y3R0 467-571, limits assumed, looked up): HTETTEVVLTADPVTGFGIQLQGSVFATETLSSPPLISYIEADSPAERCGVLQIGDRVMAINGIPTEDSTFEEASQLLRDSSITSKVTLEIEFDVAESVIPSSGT

[14] = target: MAST1, Q9Y2H9
[15] = target: T10, APBA2_1, Q99767
T10 sequence (Q99767 563-664, limits assumed, looked up): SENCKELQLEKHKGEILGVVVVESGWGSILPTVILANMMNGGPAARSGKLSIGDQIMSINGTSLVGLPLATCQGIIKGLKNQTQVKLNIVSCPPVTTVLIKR

[16] = target: CASK, O14936
[17] = target: T11, MPDZ_12, O75970
T11 sequence (O75970 1857-1958, limits assumed, looked up): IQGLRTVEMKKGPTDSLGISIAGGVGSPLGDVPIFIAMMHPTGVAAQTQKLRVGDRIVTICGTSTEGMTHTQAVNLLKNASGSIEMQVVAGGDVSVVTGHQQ

[18] = target: AHNAK1, Q09666
[19] = target: TJP1_2, Q07157
[20] = target: Inadl_3, Q8NI35
[21] = target: T12, RADIL, Q96JH8
T12 sequence (Q96JH8 971-1071, limits assumed, looked up): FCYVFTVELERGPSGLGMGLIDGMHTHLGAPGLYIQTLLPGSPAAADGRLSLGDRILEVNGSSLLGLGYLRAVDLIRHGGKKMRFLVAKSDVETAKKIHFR

[22] = target: GORASP1, Q9BQQ3
[23] = target: T13, NHERF3_3, Q5T2W1
T13 sequence (Q5T2W1 238-333, limits assumed, looked up): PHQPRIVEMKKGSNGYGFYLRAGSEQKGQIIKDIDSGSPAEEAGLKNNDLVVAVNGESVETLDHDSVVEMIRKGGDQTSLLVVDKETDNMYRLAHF

[24] = target: MAGI2_5, Q86UL8
[25] = plain residues with an end cap or a label only (N-terminal biotin on a linker: ahx)
[26] = plain residues with an end cap or a label only (N-terminal biotin on a linker: ttds)

Chain of Inadl_5, Q8NI35 (Q8NI35 673-780): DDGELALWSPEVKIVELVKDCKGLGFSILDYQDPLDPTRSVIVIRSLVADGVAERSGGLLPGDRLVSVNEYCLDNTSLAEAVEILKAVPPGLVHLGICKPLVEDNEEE
Chain of HTRA2, O43464 (O43464 355-458): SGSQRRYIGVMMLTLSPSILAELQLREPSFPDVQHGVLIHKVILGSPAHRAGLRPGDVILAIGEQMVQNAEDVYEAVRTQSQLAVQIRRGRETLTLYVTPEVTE
Chain of TJP1_2, Q07157 (Q07157 181-274): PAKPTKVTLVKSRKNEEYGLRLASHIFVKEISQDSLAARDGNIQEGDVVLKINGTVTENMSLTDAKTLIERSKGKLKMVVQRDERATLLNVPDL
Chain of GORASP1, Q9BQQ3 (Q9BQQ3 1-208): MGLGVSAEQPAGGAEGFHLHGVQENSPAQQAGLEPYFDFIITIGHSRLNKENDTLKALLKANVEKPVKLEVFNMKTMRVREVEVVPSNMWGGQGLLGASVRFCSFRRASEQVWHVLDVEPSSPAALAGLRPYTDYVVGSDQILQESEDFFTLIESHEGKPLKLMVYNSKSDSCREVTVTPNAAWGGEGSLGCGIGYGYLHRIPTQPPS
Chain of Inadl_3, Q8NI35 (Q8NI35 359-469): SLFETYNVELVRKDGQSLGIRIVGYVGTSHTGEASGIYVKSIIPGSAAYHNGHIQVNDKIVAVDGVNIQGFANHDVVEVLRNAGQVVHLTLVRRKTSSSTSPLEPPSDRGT
Chain of MAGI2_5, Q86UL8 (Q86UL8 915-1017): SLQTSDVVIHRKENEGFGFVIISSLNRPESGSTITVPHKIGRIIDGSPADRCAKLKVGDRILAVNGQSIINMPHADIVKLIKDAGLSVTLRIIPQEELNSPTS
Chain of AHNAK1, Q09666 (Q09666 4-100): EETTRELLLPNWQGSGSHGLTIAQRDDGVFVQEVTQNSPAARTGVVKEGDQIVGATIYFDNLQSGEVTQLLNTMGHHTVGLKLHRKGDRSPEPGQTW
Chain of CASK, O14936 (O14936 487-570): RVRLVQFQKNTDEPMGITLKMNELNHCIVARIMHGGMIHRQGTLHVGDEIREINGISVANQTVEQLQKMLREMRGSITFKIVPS
Chain of GRASP, Q7Z6J2 (Q7Z6J2 96-193): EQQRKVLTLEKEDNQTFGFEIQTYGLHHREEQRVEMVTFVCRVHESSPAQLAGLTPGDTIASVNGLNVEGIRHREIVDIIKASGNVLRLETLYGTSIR
Chain of LNX1_2, Q8TBB1 (Q8TBB1 371-470): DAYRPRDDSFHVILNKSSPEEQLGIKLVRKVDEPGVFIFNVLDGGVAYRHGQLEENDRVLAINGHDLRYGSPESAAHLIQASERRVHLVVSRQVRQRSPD
Chain of MAST1, Q9Y2H9 (Q9Y2H9 962-1065): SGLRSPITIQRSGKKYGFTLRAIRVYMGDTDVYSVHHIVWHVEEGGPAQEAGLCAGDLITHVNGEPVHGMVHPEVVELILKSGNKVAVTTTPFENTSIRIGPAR

- pKd [1, 25]: below the threshold
- pKd [2, 25]: below the threshold
- pKd [3, 25]: below the threshold
- pKd [4, 25]: below the threshold
- pKd [5, 25]: below the threshold
- pKd [6, 25]: below the threshold
- pKd [7, 25]: below the threshold
- pKd [8, 25]: below the threshold
- pKd [9, 25]: below the threshold
- pKd [10, 25]: below the threshold
- pKd [11, 25]: below the threshold
- pKd [12, 25]: 3.88
- pKd [13, 25]: below the threshold
- pKd [14, 25]: 4.32
- pKd [15, 25]: below the threshold
- pKd [16, 25]: below the threshold
- pKd [17, 25]: below the threshold
- pKd [18, 25]: below the threshold
- pKd [19, 25]: below the threshold
- pKd [20, 25]: below the threshold
- pKd [21, 25]: below the threshold
- pKd [22, 25]: below the threshold
- pKd [23, 25]: below the threshold
- pKd [24, 25]: 3.53
B1: SHKBP1, Q8TBC3 (peptide)
chain: PKMKLNETSF

- pKd [1, 26]: below the threshold
- pKd [2, 26]: below the threshold
- pKd [3, 26]: below the threshold
- pKd [4, 26]: below the threshold
- pKd [5, 26]: below the threshold
- pKd [6, 26]: 4.54
- pKd [7, 26]: below the threshold
- pKd [8, 26]: 3.78
- pKd [9, 26]: 3.62
- pKd [10, 26]: 4.66
- pKd [11, 26]: 3.53
- pKd [12, 26]: below the threshold
- pKd [13, 26]: below the threshold
- pKd [14, 26]: 4.33
- pKd [15, 26]: below the threshold
- pKd [16, 26]: below the threshold
- pKd [17, 26]: below the threshold
- pKd [18, 26]: 3.56
- pKd [19, 26]: below the threshold
- pKd [20, 26]: below the threshold
- pKd [21, 26]: 3.82
- pKd [22, 26]: below the threshold
- pKd [23, 26]: below the threshold
- pKd [24, 26]: 4.56
B2: NET1, Q7Z628 (peptide)
chain: SGGKRKETLV

- pKd [1, 25]: below the threshold
- pKd [2, 25]: below the threshold
- pKd [3, 25]: below the threshold
- pKd [4, 25]: below the threshold
- pKd [5, 25]: below the threshold
- pKd [6, 25]: 3.83
- pKd [7, 25]: below the threshold
- pKd [8, 25]: below the threshold
- pKd [9, 25]: below the threshold
- pKd [10, 25]: below the threshold
- pKd [11, 25]: 3.94
- pKd [12, 25]: 4.66
- pKd [13, 25]: below the threshold
- pKd [14, 25]: 4.05
- pKd [15, 25]: below the threshold
- pKd [16, 25]: below the threshold
- pKd [17, 25]: below the threshold
- pKd [18, 25]: below the threshold
- pKd [19, 25]: below the threshold
- pKd [20, 25]: 3.63
- pKd [21, 25]: below the threshold
- pKd [22, 25]: below the threshold
- pKd [23, 25]: below the threshold
- pKd [24, 25]: 4.38
B3: RAPGEF6, Q8TEU7 (peptide)
chain: ADENEQVSAV
